Source: patent publication US20020147306A1, “Peptides that modulate the interaction of B class ephrins and PDZ domains” (priority 1998, published 2002)

What was measured:
Experiment in all cases: fluorescence polarization, 25 nM fluorescein-labelled peptide, GST fusion titrated, 22 C
[1] = biological target: fluorescein-labelled NIYYKV peptide
[2] = biological target: fluorescein-labelled NIYpYKV peptide
[3] = biological target: fluorescein-labelled NIpYYKV peptide
[4] = biological target: fluorescein-labelled NIpYpYKV peptide

Chain of GST-FAP-1 PDZ5 fusion protein (P08515 whole entry, the tested form may be a part): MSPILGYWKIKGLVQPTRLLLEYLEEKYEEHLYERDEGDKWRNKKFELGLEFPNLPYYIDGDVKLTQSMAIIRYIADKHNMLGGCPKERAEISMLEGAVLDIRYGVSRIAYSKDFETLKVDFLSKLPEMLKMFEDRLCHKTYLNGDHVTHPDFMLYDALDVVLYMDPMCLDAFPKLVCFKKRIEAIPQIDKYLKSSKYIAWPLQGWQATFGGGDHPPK

| Kd [1] [µM] | Kd [2] [µM] | Kd [3] [µM] | Kd [4] [µM] | Substance |
| --- | --- | --- | --- | --- |
| 65 | – | – | – | GST-FAP-1 PDZ3 fusion protein (from UniProt Q12923 1368-1452) |
| 9.9 | 15.4 | 6.8 | 8.4 | GST-FAP-1 PDZ5 fusion protein (from UniProt P08515 1-218) |
